The values that follow come from publication PMC3779530 (Innate immunity, 2013).

Assay [1] deals with TLR4 ECD (Homo sapiens) (UniProt O00206). As to conditions: cited from earlier work.
Target sequence in this assay (O00206 24-631 D299G/T399I): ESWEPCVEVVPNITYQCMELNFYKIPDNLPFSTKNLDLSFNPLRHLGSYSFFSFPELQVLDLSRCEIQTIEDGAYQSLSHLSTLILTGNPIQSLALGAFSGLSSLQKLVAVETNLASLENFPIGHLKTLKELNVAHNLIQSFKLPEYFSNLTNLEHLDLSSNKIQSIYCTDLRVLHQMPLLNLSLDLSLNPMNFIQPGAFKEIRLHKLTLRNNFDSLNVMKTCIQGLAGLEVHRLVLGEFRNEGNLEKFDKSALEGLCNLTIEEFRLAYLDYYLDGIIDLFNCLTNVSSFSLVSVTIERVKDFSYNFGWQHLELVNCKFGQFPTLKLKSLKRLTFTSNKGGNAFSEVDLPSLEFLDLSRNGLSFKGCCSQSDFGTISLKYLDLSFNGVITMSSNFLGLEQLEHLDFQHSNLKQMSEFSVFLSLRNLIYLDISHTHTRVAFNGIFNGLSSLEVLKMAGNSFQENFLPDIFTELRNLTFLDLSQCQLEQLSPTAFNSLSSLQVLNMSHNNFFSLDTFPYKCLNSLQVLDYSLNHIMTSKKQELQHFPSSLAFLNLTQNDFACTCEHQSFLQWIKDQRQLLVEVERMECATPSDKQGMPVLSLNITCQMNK
Assay [2] has the same target. As to conditions: cited from earlier work. This is another data set of the same source.
Target sequence in this assay (O00206 24-631): as the sequence (O00206 24-631 D299G/T399I) above, with G276D, I376T counted along it
In assay [3] the target is full-length wild-type TLR4 on transiently transfected HEK293T cells (human, UniProt O00206 24-839). As to the kind of experiment: radioligand binding.
The target of assay [4] is FLAG-tagged TLR4 ectodomain-vlr-Fc protein (not stated | hagfish) (UniProt O00206). Kind of assay: radioligand binding.

Like-named read-outs stand apart in the source and are kept apart here.

Chain of full-length wild-type TLR4 on transiently transfected HEK293T cells (O00206 24-839): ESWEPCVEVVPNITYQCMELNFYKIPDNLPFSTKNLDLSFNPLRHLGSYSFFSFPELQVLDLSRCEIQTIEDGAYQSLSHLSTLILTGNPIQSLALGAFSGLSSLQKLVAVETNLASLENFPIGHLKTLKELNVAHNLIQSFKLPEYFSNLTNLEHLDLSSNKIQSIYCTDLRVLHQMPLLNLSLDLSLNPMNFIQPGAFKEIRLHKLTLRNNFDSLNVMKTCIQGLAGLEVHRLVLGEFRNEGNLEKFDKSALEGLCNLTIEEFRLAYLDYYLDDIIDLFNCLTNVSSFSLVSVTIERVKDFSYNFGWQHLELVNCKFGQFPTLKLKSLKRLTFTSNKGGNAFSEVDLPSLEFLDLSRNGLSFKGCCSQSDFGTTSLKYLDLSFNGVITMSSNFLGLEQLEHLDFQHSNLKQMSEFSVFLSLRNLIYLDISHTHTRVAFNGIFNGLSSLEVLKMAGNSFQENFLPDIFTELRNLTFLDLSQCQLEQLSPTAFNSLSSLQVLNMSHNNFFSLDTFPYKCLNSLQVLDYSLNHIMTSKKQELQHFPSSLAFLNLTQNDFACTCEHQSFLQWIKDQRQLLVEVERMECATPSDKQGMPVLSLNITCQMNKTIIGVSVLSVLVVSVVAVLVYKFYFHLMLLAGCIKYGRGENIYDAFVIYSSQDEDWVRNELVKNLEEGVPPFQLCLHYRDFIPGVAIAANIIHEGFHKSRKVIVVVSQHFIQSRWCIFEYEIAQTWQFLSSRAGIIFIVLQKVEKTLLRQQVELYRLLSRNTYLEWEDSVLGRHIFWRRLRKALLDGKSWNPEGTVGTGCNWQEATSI

Broadly, the Kd is the constant that tells how readily two partners part at equilibrium. Turning to LOS·MD-2 (from UniProt Q9Y6Y9), the Kd with TLR4 ECD (Homo sapiens) [1] and with TLR4 ECD (Homo sapiens) [2] was 200 pM each time.

B1: metabolically labeled LOS·MD-2 (monomeric complex of Neisseria meningitidis lipooligosaccharide and recombinant human His6-MD-2) (ligand)
chain: QKQYWVCNSSDASISYTYCDKMQYPISINVNPCIELKRSKGLLHIFYIPRRDLKQLYFNLYITVNTMNLPKRKEVICRGSDDDYSFCRALKGETVNTTISFSFKGIKFSKGKYKCVVEAISGSPEEMLFCLEFVILHQPNSN
On to B1, for which the Kd in assay [3] is 367 ± 136 pM; in assay [4] it was 117 pM.
